Experimental data taken from patent US20220153792A1 (INSTITUTE FOR RESEARCH IN BIOMEDICINE, published 2022).

T1: histidine tagged HMGB1 (High-Mobility-Group-Protein 1) (Homo sapiens (Human), UniProt P09429 1-215, limits assumed, labeled with the his-tag specific NT-647 dye)
T1 construct: also called high-mobility protein box 1; not shown: histidine tag
T1 sequence: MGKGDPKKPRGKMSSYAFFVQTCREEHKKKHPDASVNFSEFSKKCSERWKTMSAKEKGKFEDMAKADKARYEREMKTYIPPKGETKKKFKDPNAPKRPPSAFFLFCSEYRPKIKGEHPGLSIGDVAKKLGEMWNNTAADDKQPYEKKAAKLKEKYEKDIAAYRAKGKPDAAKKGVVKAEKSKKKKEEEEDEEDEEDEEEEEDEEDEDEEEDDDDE


Molecular target: T1, histidine tagged HMGB1 …
Assay: MST, NT-647-labelled His-tagged HMGB1, peptide titrated

Binder | binding result | Kd [µM]
GYHYE (First five residues of HBP08 (GYHYE)) [Pentapept-1] | no binding (tested: highest peptide concentration 500 µM) | –
ERWIH (Last five residues of HBP08 (ERWIH)) [Pentapept-2] | – | 200
